Measured values as given in the DeepSol protein solubility set.

Assay: soluble on expression in E. coli; label from the status in PepcDB or PDB records

Sequence	soluble on expression in E. coli
MGSDKIHHHHHHMRIDIDSFNVLQVLVEEGSFAKASERLHKAQSAVSYQVKKLEQHLGVTLFNRDKYRAELTPEGKVILIEGQRLLEQLANIEHLASRFSQGWEPKLELVIDGSLPMEPIMTALKRMSEHNVPTKIQLNMEFLGGVQHRFERDKADLMLVKDYRSGPYYDAKPLPSITSVLVVANSHPLALSKAVSLSQLQQHVELTIEDSSPSRLGRDELQFGGDKVFYLSGFIMKKNALLKGLGFGWMPDFLIGEELAAGELVMVDFMGGSRFNYTPQLVSTLARPLGRAGQLFTELILQEFDLFHQDLADGSSGSGLG	not soluble
MGSDKIHHHHHHMRILILGAGKMGSFFTDILSFQHETAVFDVNPHQLRFVYNTYRFTTLEEIKEFEPELVINAATVKYTLDAFRKILPVLPKDCILSDIASVKTGLKKFYEESGFRYVSTHPMFGPTFASLSNLSSESAIIISESDHLGKVFFKDLYNSLNLNIFEYTFDEHDETVAYSLSIPFVSTFVFAAVMKHQEAPGTTFKKHMAIAKGLLSEDDYLLQEILFNPRTPSQVENIRTELKQLLEIITNKDAEGMKKYLTKIREKIK	not soluble
MGSDKIHHHHHHMRISLSTGTLFTFPLGKVMRIAREAGFDGVELIINQDFQKVNCRKLIEELAEILPINSIHAPFMPLDGWGGPIDSLERCVELAAGAGIPLVNFHPPSWMGFEIGFWRWLYRVMDFQKEVGRETVIVTLENMPWVGTRFRVNPHILSNTEKLIEFIQERNLYMTFDTTHMGSGKANFINDFYHCYNSGRIRNIHFSDYGHGREHLIPGHGILPLTRFLNHLRSTDYADTLTLELSPEEFPRDERIIVESLREILQYLRRETSPA	not soluble
MGSDKIHHHHHHMRKDDVVIVTCAITGAIHTPSMSPYLPVTPDQIVEEAVKAAEAGAGMVHIHARDPKDGRPTTDVEVFRYICREIKKQSDVVINVTTGGGGTLGIPVEERAKVVPALKPEIATFNMGSMNFAIHPLLKKYKEFKYDWEPEYLEMTRDIVFRNTFKDLEALSRIFKENDTKPELECYDIGQIYNTAFMFHEGYLEPPLRLQFIHGILGGIGTAVEDVLFMKQTADRLIGRENYTWSLVGAGRFQMPLGTLAVIMGGDVRVGLEDSLYIERGKLAKSNAEQVEKMVRIVKELGKRPATPDEVREILGLKGKERVNF	not soluble
MGSDKIHHHHHHMRLDSISIANFRNHTLLEFEPGHSITNIYGRNGSGKTSILEAIHYCALTRGFSGNNDREYLKFGEELFTIRSSFTSGQGIATKVSITYSPKREKRILVNEQELQTFSSHIGTIPCVTFTPREMVIINGAPAERRRFIDTAICQYDRKYLSDLLLYRRILQQRNALLSSEQDPRVIDSALDVLTDQLVAIATEIVLVRKRFIEHFTSMLGGVYQWIPEGAEPSILYQSSLGHHENLYEKDKIQQVFRERFETLKQQELQRRQTLAGPHRDDLQFYLNKREIRKYASQGQQRAFLVAMKMTLQGYLYEASGEIPITLLDDLFSELDEVVSGTMVETLATKGQVIITSTEKKKGKGISFFSVDDYKSSKEP	not soluble
MGSDKIHHHHHHMRLLFSTMFLYEYSTDMIAKAVNLAGYDGVEFWPETPYFWVDRAMEKLECLRDFDNAIHVPVLDLNPVSVNPDICNLTLRETLYSIALAAKIKAKPVTVHAGRRSAAREPVWADYLSLSRYLRISSRYAKIKGVTVGLENSENSINNLCKTADEVRKFAEEYDVMVTLDIKHALLNGGVEEFLELFGRICNVHVSYYDEKMRHVQPSRGKEVGDALKELAELGYDGPLTVELDDLGIGNLDFSKKVEILRKERRFVEKFFKR	not soluble
MGSDKIHHHHHHMRNAHDILDNIVYDFANATGLGSVAVDLNGKEISPWYNFTSFCQQVRQIAAYHPYCQQCDRCGGFESTKAKQIQCYRCHAGLVDFSIPIFINGNLTGFVSCGQARVAENLPLPKIVENDKNLPTESKLIELYHEVPELSLMKIKSAAQLLNLIIENYLSKEYNLRIVKNVSPVKNQKLETLGRHQATMEMILNHINQNFSDNLNLEQMASKANLSMFYFSRTFKELTGTGFTAYLINKRMTEAHCLLEQTNWSIEKIARSVGYNDVHYFSRLFKKTFNRSPSEFRNHSSGFSM	not soluble
MGSDKIHHHHHHMRNLDITTLRSFVAVADTGGVTRAASFLHLTQSAVSMQLKRLEEMLGVELLDRSGRNIGLTSAGEQLLGFARKMLSLNDEIITRLTDQAFEGEVTLGVPHDVVHPVIPMVMQRFNVQFPRVKVNLCTSNTRDLKMDFAQGRFDLIVTTETTASEGGEVIHQMPLRWIGALGGQTWRQRPLRIGFCRNCIFRGLATAALDDAGIPWEMAVDSESDRTVEATVSADLAVGVLLEGTQPAHQQVIDHGGSLPQLPVQHINLYGAERSRAQYVDHLASLIRQGFAGLSQPGLRAVGTEMVSAPVQLGVV	not soluble
MGSDKIHHHHHHMRNPDIGIDDLTALFIADTPLIDVRAPVEFTQGSLPGAVNLPILNDEERALVGTTYKQQGSEAAIKLGYEMVSGSVKQNRLQQWLDFIHQHPRAILYCFRGGKRSQITQQWLRDTGIDSPLITGGYKRARQFLISTIDRFSEHRKLLVITGPTGSGKTRLIHDISNSHPVLDIEALARHRGSAFGGMSVPQPSQIDFENHLAVNLLKLEQNNLSEPVIVEDESRHTGKVYLPDSFFHHLRNSEIIWVDEPLATRVDNIFEDYILTTPIGQAQRIRQAIPPLASTVETREILRQQARQLFDKYAGALQAISKKLGGDRFQEVSEDLENARSDFENKNEIQSNKIWIEKLVRYYYDPLYLGSLQRRRVNPCFKGSGQAVMDYLQARK	not soluble
MGSDKIHHHHHHMRNPEVIVIGSGIGGLCCGGLLAKAGKRVLILEAHSKPGGAAHGFEKNGYKFESGPSLWSGIGSWPTTNPLGQVLKALNQKVDLIKYQDWNVQIPEGDYTIGVGDRRFLDQINSISGKDAMKEWENFIQVIKPIGAAANAIPLLALNQNKETVLQLLKRSKTLLTHLKSFKYLGGAFGNLVDDHLKDPFLRNWVELLCFLISGLSKDETNAAAMATLFDDWFNPDAYLEYPKGGSESIVKALLDGIYSFGGDLQLNSKVSQIIIKRNKAIGIELKNGERIFADHIVSNADIWNTIELIPKEISQKWRGKRSKTPKCKSFLHLHLGFNAEGLKDIPLHSIWVNDWSKGITAERNVVVLSIPSALDPTMSPPNKHILHGYTPANEPWERWEGLKIGSKEYERTKEERCSVFWEPIKKLVPDIEERIEVKMLGTPLTHQRFLNTKNGSYGPALSAAEGLFPGNKTPIKNLLLCGSSTFPGIGIPPVAASGAMAANTILGSKFQRDLIEELGL	not soluble
MGSDKIHHHHHHMRNYCRWCENDPLLIAYHDKEWGQREGNDQRLFEAMCLELFQSGLSWKTVLQKRDSIRKAFHHFELEKVATMNEQDVERLLKDKGIIRHRKKIEATIQNSRNVVRLQREFGSFREWIESLPNDVEAKAAMISEMFTYMGPITAKSFLEATGFIPVEHDKQCHLFEGKSLQIKPIGTADRGEVQQFFHQHWGSPEMVLSTGVFHCERLPGFLYRNKLGEIIGLITYVTHGKRSIEIISLDSVEEGKGIGTSLLQAVEAEAIEQQVRQIEVITTNDNLHALGFYQKRGFQLKELVVNGVEKARQLKPSIPRKSADGIPIRDELKLVKTMR	not soluble
MGSDKIHHHHHHMRPTAIGSVCTPFVCWSCVARHGNTHVCWSCSVASVPCVTRAPVSVPGGLAAVCRTWLRRKGDLMNQGRPGVHVRVFDARVGDRVVVEPKGVGDRFMSVFVGWDAGRYLIVKMPSNLALKDHLYPDKPVVLRYLHCTGEVHGCETTIETSVAVPHRLLFLRHPESVEAVSLRKDAWVNCSVPALLRHEAGNMAGYLLDVSRGGCKVAYFEEEGLPTLAAGTEVQCSFRLPGGEQPVEVGAVVRNVAGEGGRIVCGLEFRDAPEPVVAAIGAYVDAAAFLVGTSCADRVVR	not soluble
MGSDKIHHHHHHMRRLFTSESVTEGHPDKIADQISDAILDAMLEQDPRSRVAVETLVTTGLVIIAGEVTTRAYVEIPDIARKTILEIGYTRAKYGFDGETCGVLTSIHSQSPDIALGVDKALEVKTGEEVADEFEALGAGDQGIMFGYATNETPEYMPLPITLAHKLAMRLAEVRKNGTLPFLRPDGKTQVTIEYEDDKPVRVDTVLISTQHDPDISQADLREAIIEHVINPVIPEQYRDDKMKILVNPTGRFVLGGPMADTGLTGRKIIVDTYGGWVPHGGGAFSGKDPTKVDRSAHYMARYVAKNVVAAGLADKFLIQLSYAIGVAKPVSIMIDTYGTAKVDEDKLLKVITELFDFRPGAIIKKLNLLRPIYRKTAAYGHFGRNEEEFTWEKLDMVDELKRAFNM	not soluble
MGSDKIHHHHHHMRRLPPLNALQIFETVARHRSFTRAADHLCLTQGAVSRQIIALEDYYKFPLFKRHAKGLTLTAEGELLLPAVKESFARIEEISLRLTRQRTDLALKVPTCVMRWMLPKIMRFQAEYPELHVQITTTWQHDVDFQLEPFDAAIIYGSSPGADVQAVPLFEERLTPVCAPDLLKDKPLAELADLARHTLLHPTRDHRDWKMWLARVTEMGAANAPVIDAEHGPSFDTLDMATNAALQGFGVAISDLALIDEDVAAKRLVRPFDTVLKTGWRYYFVYPDSVAHQQKLNLFRDWIAAHWEE	not soluble
MGSDKIHHHHHHMRRVISIFRKLSAVYCHTGNFAEGIRVCKYALGRFTEMEDKYKCIFTFNMSLYYNYLGEYGKALNAITGFESVIKATYEDRYYKVLLLKADCYYGAERYAESLSIYNKLISITLKDDFNNLCVYYNNMTQVYLRMGKRDMAVNCINTVINNLHNISDDFEALPQIYAELGKSYLMMADNDKSIKYLTIALKLSKDFKYYSVTKDILNELSKIKGNSNKLKLKDEFIILTENMGRSYDSLNHSLVFNIIQYYTRLGDVASINELCEYCKERKVG	not soluble
MGSDKIHHHHHHMRSDVIKKGLERVPHRSLLKALGITDDEMRRPFIGIVSSWNEIIPGHVHLDKVVEAVKAGVRMAGGVPFVFPTIGICDGIAMDHRGMKFSLPSRELIADSIEIVASGFPFDGLVFVPNCDKITPGMMMAMGRLNIPSVLISGGPMLAGRYNGRDIDLITVFEAVGGYKVGKVDEETLKAIEDLACPGAGSCAGLFTANTMNSLAEALGIAPRGNGTVPAVHAKRLRMAKEAGMLVVELVKRDVKPRDIVTLDSFMNAVMVDLATGGSTNTVLHLKAIAESFGIDFDIKLFDELSRKIPHICNISPVGPYHIQDLDDAGGIYAVMKRLQENGLLKEDVMTIYLRKIGDLVREAKILNEDVIRPFDNPYHKEGGLGILFGNLAPEGAVAKLSGVPEKMMHHVGPAVVFEDGEEATKAILSGKIKKGDVVVIRYEGPKGGPGMREMLSPTSAIVGMGLAEDVALITDGRFSGGSHGAVIGHVSPEAAEGGPIGIVKDGDLIEIDFEKRTLNLLISDEEFERRMKEFTPLVKEVDSDYLRRYAFFVQSASKGAIFRKP	not soluble
MGSDKIHHHHHHMRVCAEHHVINTATGPMGTRVYRPAGPGSYPAILFYSEIFQETAPISRMATVLAGHGFVVLVPEIFHELNPAGTVLGYDDMGKDKGNSDKATKPLESHDSDTAAMVDFVRRQPWCQGKIGAMGVCIGGHLAYRAAVNPDVAAAFCLYATDIHSGTIPSQPGNDSLSRTRDIRGELYMVFGKQDPHVPGEGRRLIQHNLEQHGVNHSWLEVNAEHAFMRDGDARHDPALALVMYQSAIALFQRTL	not soluble
MGSDKIHHHHHHMRVIELEDLDHIREAIVILKGLEVEGANKPGEKLGFKKGKNLMSIFTCKEMDRFIRDVQERKNFSLETNAYFFELHSKRFVSLRYLPKKSLLFVNDLTEERTLSEAKLDFVTAVSHELFTPLSASKANVFLLKDIENDPEKLEILGKVERSLDRMETIIRQLKVLTMIQLRLYELKMEHIPVEEVVHMVLEELREKIESKKIKVNVFVDVETIETDRFVFHTILKNLVSNAVKYSYPDSVVEISITGERLSVKDQGIGIKEEEKSRIFERFYRGSEALKMAPGSGLGLSIVKHLCDTIGYRLEVNSQWLVGSEFIVHFK	not soluble
